In US20150160235A1 (Takeda / Millennium, published 2015):

Target: T1, oxMIF (oxidized macrophage migration inhibitory factor) in human tissue cryosections (human, UniProt P14174 2-115)
T1 construct: mature; Native oxMIF isoform in unfixed, air-dried cryosections of patient tissue (kidney, pancreas, breast, brain, lung, colon); also called oxidized MIF
Experiment: IHC, biotinylated RAM9 5 µg/ml on unfixed kidney cryosections, streptavidin-HRP/DAB
Protocol: The kidney tissue slides were prepared according to state of the art techniques known to experts, either fresh frozen or OCT embedded, sectioned at 10 μm and stored at <=−80° C. after sectioning. All following steps were done at ambient temperature. The cryo-sections were air dried for 30 min and unspecific binding was blocked with blocking buffer (20% Normal Goat Serum/2% Bovine Serum Albumin/0.2% Fish Gelatine in TBS) for 30 min. The sections were then incubated with a primary, preferably biotinylated, anti-oxMIF Antibody (biotinylated-RAM9) in primary antibody dilution buffer (2% Bovine Serum Albumin/0.2% Fish Gelatine in TBS) at a concentration of 5 μg/ml for 60 min. After washing in TBS, the specimen was fixed in 4% PBS buffered formaldehyde for 15-20 min. Excess formaldehyde was removed by washing in TBS for 10 min. The staining was done using VECTASTAIN Elite ABC Reagent (HRP conjugated Streptavidin) for 30 min. Then the sections were extensively washed again 10 min in TBS. By using ImmPACT DAB Substrate for 10 minutes the staining was visualized as a brown color, which is reflected in FIG. 1A by a dark grey. The slides were washed in TBS and the nuclei were counterstained with Haematoxylin for 1-2 min. By washing the slides in tap water the color of the counter stain changes from violet to blue. […]

T1 sequence (P14174 2-115): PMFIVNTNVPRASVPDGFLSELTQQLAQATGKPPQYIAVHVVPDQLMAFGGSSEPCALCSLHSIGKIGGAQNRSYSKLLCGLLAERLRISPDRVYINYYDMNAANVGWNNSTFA

- binding result: binds
B1: anti-oxMIF antibody RAM9 (antibody, V domains shown)
VH: EVQLLESGGGLVQPGGSLRLSCAASGFTFSIYSMNWVRQAPGKGLEWVSSIGSSGGTTYYADSVKGRFTISRDNSKNTLYLQMNSLRAEDTAVYYCAGSQWLYGMDVWGQGTTVTVSS
VL: DIQMTQSPSSLSASVGDRVTITCRSSQRIMTYLNWYQQKPGKAPKLLIFVASHSQSGVPSRFRGSGSETDFTLTISGLQPEDSATYYCQQSFWTPLTFGGGTKVEIKR
notes: also called biotinylated-RAM9
